Experimental data: patent US20100143379A1 (priority 2005, published 2010)

Columns and labels:
[1] = test system: murine bone marrow progenitor cultures; assay: BFU-E and CFU-E erythropoietin-dependent progenitor colony assays; assay type: cell-based; settings: 10-100 ng/ml MIF, 1-20 ng/ml TNFα, or 10-100 U/ml IFNγ
Procedure: Bone marrow cells were harvested, plated in a methylcellulose-based medium, and colony numbers scored after the addition of murine cytokines. Individual assays were performed in duplicate, and the data shown is a compilation of 3-6 independently performed experiments. % inhibition of colony formation is calculated with reference to a cytokine-minus control. All values shown are the mean±SD and are significant when compared to wells with no cytokine addition (P<0.05). CFU-E: colony forming unit—erythroid; BFU-E: burst-forming unit—erythroid.
The two inflammatory cytokines, TNFα and IFNγ, were also studied. TNFα and IFNγ are produced as a consequence of macrophage and T cell activation (McDevitt et al. 2004. Curr Hematol Rep 3:97-106). The appearance of BFU-E and CFU-E were quantified after culture with these cytokines, applied either alone or in combination.
BFU-E and CFU-E Progenitor Cell Assays. The progenitor cell (colony) assays were performed according to the standardized methods described previously (Martiney et al. 2000. Infection and Immunity 68:2259-2267) and protocols from StemCell Technologies (Vancouver; BC, Canada). Briefly, washed murine bone marrow cells were plated in sterile 35-mm dishes containing a methylcellulose-based medium and growth factors. The total number of bone marrow cells plated in duplicate culture dishes were as follows: 2×10^5 for CFU-E and 5×10^5 for BFU-E. MethoCult™ M3334 was utilized for the CFU-E and BFU-E colony assays. The media for CFU-E and BFU-E was volume adjusted by adding 1 part Isocove's MDM to 9 parts MethoCult™ M3334 to give final concentrations of the following components: 15% fetal bovine serum, 1% BSA, […] transferrin, […] insulin, 1% methylcellulose, 10^−4 M 2-mercaptoethanol, 2 mM L-glutamine and 3 units/ml erythropoietin. Each assay of different bone marrow progenitor cells was performed independently 3-6 times.

[2] = test system: Friend murine erythroleukemia (MEL) cell line; assay: MEL cell cytodifferentiation and hemoglobin content; assay type: cell-based
Procedure: The specificity of this effect was verified by the application of a neutralizing, anti-MIF mAb.
Erythroid Progenitor Cell Lines. The Friend murine erythroleukemia (MEL) cell line was cultured in Dulbecco's modified Eagle's medium supplemented with 10% FBS. Differentiation was induced with dimethyl sulfoxide differentiation medium for 4 days as described (Terada et al. 1977. Proc. Natl. Acad. Sci. USA 74:248-252). Hemoglobin synthesis was assessed by cyto-centrifugation onto glass slides followed by staining with benzidine (Worthington), and by the hemoglobin kit from Sigma.

ERK-1/2 = assay: MAP kinase phosphorylation in differentiating K562 progenitors (Western blot); assay type: cell-based, human; settings: K562 in differentiation medium
Procedure: (§1) MIF addition markedly affected these differentiation-associated, MAP kinase responses.
(§2) Western Blot Analysis. Immunoblotting with antibodies directed against phospho-ERK1/2, total ERK1/2, phospho-JNK1/2, total JNK1/2, phospho-p38, and total p38 was performed according to the manufacturer's instructions (New England Biolabs, Beverly, Mass.). The secondary antibody was an anti-rabbit IgG conjugated to horseradish peroxidase and detection was by chemiluminescence according to the manufacture's instructions (Amersham Pharmacia Biotech, Piscataway, N.J.). For quantitation of signal intensity of phospho-specific kinase results, western blots were scanned using a UMAX, PowerLook IIII scanner and the images were analyzed using UN-SCAN-IT gel Automated Digitizing system software version 5.1 (Silk Scientific Corporation, USA). The ratio between phosphorylated to the total MAP kinase was determined and expressed as a fold-change for each lane (mean±S.E.M for three blots from independent cell cultures). The p values were calculated for each of the time course comparisons (4, 16, 96 hrs) of three different experiments (Student T-test, two-tailed).

JNK-1/2 = assay: as above; assay type: cell-based, human; settings: vs differentiation medium alone; did not reach statistical significance (96 hrs, p<0.06)
Procedure: as §1, §2

p38 = assay: as above; assay type: cell-based, human; settings: 16 hrs, p<0.01; 96 hrs, p<0.04
Procedure: as §1, §2

CD44 = CD44 phospho-serine sandwich ELISA; assay type: cell-based; settings: MIF 100 ng/ml, 10 mins
Procedure: FIGS. 12A-12E show the phosphoserine content of CD74 and CD44 measured by ELISA. […] The ELISA values represent the mean±SD of triplicate measurements. Experiments were replicated twice. *P<0.02 versus corresponding control (Student's T test, two-tailed). […] Cell lysates were prepared and probed for PKA and PKC using phospho-specific, and total anti-PKA and anti-PKC antibodies.
Ser325 is constitutively phosphorylated in resting cells, but undergoes de-phosphorylation in response to PKC activating stimuli such as phorbol esters. […] The effect of MIF-stimulation CD44 phosphorylation was analyzed in the COS-7 and MEF cell lines by sandwich ELISA using an anti-CD44 capture antibody to quantify CD44 phospho-serine residues (Perez et al. (2003). Nature Immunol. 4:1083-92). […]
The serine phosphorylation of CD74 and CD44 was quantified by specific sandwich ELISA (Perez et al. (2003). Nature Immunol 4:1083-92). […] After several washes (0.5% Tween-20 in PBS), 0.2 μg/ml anti-phospho-serine antibody (Hypromatrix) conjugated with horseradish peroxidase was added, and immunoreactivity measured by the TMB reagent (DakoCytomation) and the data analyzed with SpectraMax Plus (Molecular Devices). […]

B1: MIF: macrophage migration inhibitory factor; recombinant mouse or human MIF purified essentially free of endotoxin (protein)
chain: PMFIVNTNVPRASVPDGFLSELTQQLAQATGKPPQYIAVHVVPDQLMAFGGSSEPCALCSLHSIGKIGGAQNRSYSKLLCGLLAERLRISPDRVYINYYDMNAANVGWNNSTFA
[1]
  BFU-E and CFU-E colony formation: dose-dependently inhibited
[2]; 20 ng/ml
  reduction of hemoglobin content: 12%
[2]; 100 ng/ml
  reduction of hemoglobin content: 20%
[2]; 200 ng/ml
  cytodifferentiation response (benzidine staining): decreased the cytodifferentiation response
ERK-1/2
  duration of ERK-1/2 phosphorylation: at least 96 hrs
ERK-1/2; 16 hrs
  ERK-1/2 phosphorylation: phosphorylation was high at 16 hrs
JNK-1/2
  JNK-1/2 phosphorylation: appeared to upregulate JNK-1/2 phosphorylation
p38
  differentiation-associated changes in p38 MAP kinase phosphorylation: reduced
CD44
  net content of CD44 serine phosphorylation: did not change
